Assay results taken from US20010029022.

Columns and labels:
GST-HPV16 E7 = GST-HPV16 E7 (UniProt P03129)
His-p27 = His-p27 (UniProt P46527)
His-p27, sequence (P46527 whole entry, looked up): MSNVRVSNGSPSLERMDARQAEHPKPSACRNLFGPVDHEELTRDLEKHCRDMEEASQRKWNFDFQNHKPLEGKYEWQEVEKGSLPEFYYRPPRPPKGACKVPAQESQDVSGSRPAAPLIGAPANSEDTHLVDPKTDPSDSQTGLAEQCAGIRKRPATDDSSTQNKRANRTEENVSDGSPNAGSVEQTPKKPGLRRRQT

GST-HPV16 E7, sequence (P03129 whole entry): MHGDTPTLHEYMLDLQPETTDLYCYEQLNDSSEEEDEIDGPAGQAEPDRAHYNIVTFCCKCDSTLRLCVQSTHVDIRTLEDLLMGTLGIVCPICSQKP

With cyclin A/CDK2 complex the “Km for histone H1 (cyclinA/CDK2 pre-incubated with HPV16-E7, Michaelis-Menten fit)” value (histone H1) was “a Km of 1.1+/-0.2 µM for histone H1”.

In the case of cyclin E/CDK2 complex, the “cyclin E/CDK2 phosphorylation of purified MBP-HPV 18 E1 fusion protein” value (GST-HPV16 E7) is reported as “stimulated 2.3-fold by the addition of HPV 16E7”, the “cyclinE/CDK2 kinase activity with histoneH1 as the substrate, increase over controls” value (GST-HPV16 E7) is reported as “a large increase (26-fold and 13-fold) over controls” and the “cyclinE/CDK2 kinase activity with pRb as the substrate, increase over background” value (GST-HPV16 E7) is reported as 1.9-fold increase over background. For the same substance, the “cyclin E/CDK2 phosphorylation of MBP-HPV 18 E1” value (His-p27) was “The phosphorylation of E1 was completely inhibited by the addition of p27 even in the presence of excess GST-16E7”.

In the case of CDK5 complexed with p25, the “H1 phosphorylation by CDK5 complexed with p25, increase over controls” value (GST-HPV16 E7) is reported as “a 4.5-fold increase over controls”.
